US20200255503A1

target: natural Fel d1 (cat (Felis domesticus)) (UniProt P30438); assay: SPR, mAb captured, nFel d1 injected, 25 C

| Binder | Kd [nM] | koff [s⁻¹] | kon [M⁻¹ s⁻¹] | t1/2 [min] |
| --- | --- | --- | --- | --- |
| H4H2608B (antibody, human IgG4, V domains shown) VH: EVQLVESGGGLVKPGGSLRLSCAASGFTFSDYYMNWIRQAPGKGLEWISYISSSDDTTYYADSVKGRFTISRDNAKNSLYLQMNSLRAEDTAVYYCARDGKYNTVAGDHWGQGTLVTVSS VL: EIVMTQSPDFQSVAPKEKVTITCRASQNIGSSLHWYQQKPDQSPKLLIKYASQSFSGVPSRFSGSGSGTDFTLTINSLEAEDAATYYCLQSYTLRTFGQGTKVEIKR | 2.05 | 0.00106 | 516000 | 11 |
| H1M1241N (antibody, V domains shown) VH: EVQLVESGGGLVKPGGSLRLSCAASGFTFSSYSMNWVRQAPGKGLEWVSSISSRSSYIYYADSVKGRFTISRDNAKNSLYLQMNSLRAEDTAVYYCARDHIVVVPGASYYYYGMDVWGQGTTVTVSS VL: DIQMTQSPSSLSASVGDRVTITCRASQGIRNDLGWYQQKPGKAPKRLISAASSLQSGVPSRFSGSGSGTEFTLTISSLQPEDFATYYCLQHNSYPLTFGGGTKVEIK | 3.63 | 0.000662 | 182000 | 17 |
| H2M1236N (antibody, mouse IgG2, V domains shown) VH: QVQLQESGPGLVKPSETLSLTCTVSGGSISNYYWSWIRQPPGKGLEWIGYIYYSGRTNYNPSLKSRVTISVDTSKNQFSLKLRSVTAADTAVYYCARHRITRTADSFDYWGQGTLVTVSS VL: DIQMTQSPSSLSASVGDRVTITCQASQDITNYLNWYQQKPGKAPKLLIYDASNLETGVPSRFSGSGSGTDFTFTISSLQPEDVATFYCHQYGDLPYTFGQGTKLEIK | 4.55 | 0.00142 | 312000 | 8 |
| H2M1233N (antibody, mouse IgG2, V domains shown) VH: QVVLVESGGGVVQPGRSLRLSCAASGFTFSSYGMHWVRQAPGKGLEWVAVIWYDGSNKYYVDSVKGRFTISRDNSNNTIYLQMNSLRAEDTAVYYCARSLIPVAGTDPIFGYWGQGTLVTVSS VL: DIQMTQSPSTLSASVGDRVTITCRASQSVSSWLAWYQQKPGKAPKLLIFKASGLESGVPFRFSGSGSGTEFTLTISSLQPDDFATYYCQQYNTYSPTFGQGTKVEIK | 1.4 | 0.000353 | 253000 | 33 |
| H2M1237N (antibody, mouse IgG2, V domains shown) VH: QVVLVESGGGVVQPGRSLRLSCAASGFTFSSYGMHWVRQAPGKGLEWVAVIWYDGSIKYYADSVKGRFTISRDNSNNTIYLQMNSLRAEDTAVYYCARALIPVAGTDPIFGYWGQGTLVTVSS VL: DIQMTQSPSTLSASVGDRVTITCRASQSVSSWLAWYQQKPGKAPKLLIFKTSGLESGVPFRFSGSGSGTEFTLTISSLQPDDFATYYCQQYNTYSPTFGQGTKVEIK | 0.982 | 0.000276 | 281000 | 42 |
| H2M1242N (antibody, mouse IgG2, V domains shown) VH: EVQLVESGGGLVRPGGSLRLSCAASGFTFTSYAMNWVRQAPGKGLEWVSSISSYSSYIYIADSVKGRFTLSRDNAKNSLYLQMHSLRPEDTAVYFCAREGYSAYSYFDFWGRGTLVTVSS VL: DIQMTQSPSTLSASVGDRVTITCRASQSVISWLAWYQQKPGKAPKLLIHRASSLESGVPSRFSGSGSGTEFTLTISGLQPDDFATYYCQQYNTYFPTFGQGTKVEVK | 3.14 | 0.000604 | 192000 | 19 |
| H4H2797P (antibody, human IgG4, V domains shown) VH: QVQLVESGGGVVLPGRSLRLSCAASGFTFSSYLMYWVRQAPGKGLEWVAVIWYDGSNKFYGDSVKGRFTISRDNSKNTLYLQMNSLRAEDTAVYYCARDNGNSGYEDSWNAFDIWGQGTMVTVSS VL: DIQMTQSPSSLSASVGDRVTITCRASQDIYNYLAWFQQKPGKAPKSLIYAASSLQTGVPSQFSGSGSGTDFTLTISSLQPEDFATYYCQQYNNYPFTFGPGTKVDIK | 35.4 | 0.00713 | 202000 | 2 |
| H1M1230N (antibody, V domains shown) VH: EVQLVESGGGLVQPGGSLRLSCTASGFIFSNFWMTWVRQAPGKGLEWVANIKQDGSETYCVDSVKGRFTISRDHAKNSLFLQMNSLRAEDTAVYYCARGAGTIYYYGMDVWGQGTTVIVSS VL: DIQMTQSPSSVSASVGDRLTITCRASQDISSWLTWYQQKPGKAPNLLIYAASGLQSGVPSRFSGSGSGTDFTLTISNLQPEDFATYYCQQANSFPLTFGQGTRLEIK | 3.37 | 0.000869 | 258000 | 13 |

The next binders have a lower Kd than those just listed; values first:

| Kd [nM] | koff [s⁻¹] | kon [M⁻¹ s⁻¹] | t1/2 [min] | Binder |
| --- | --- | --- | --- | --- |
| 0.765 | 0.000707 | 924000 | 16 | H4H2606B (antibody, human IgG4, V domains shown) VH: EVQLVESGGGLVKPGGSLRLSCAASGFTFSDYYMNWIRQAPGKGLEWVSYISSSGNSIYYADSVKGRFTISRDNAKNSLFLQMSSLRAEDTAVYYCARDGRYNDRRRGYYWGQGTLVTVSS VL: EIVMTQSPDFQSVTPKEKVTITCRASQSIGSSLHWYQQKPDQSPKLLIKYASQSFSGVPSRFSGSGSGTDFTLTINSLEAEDAATYYCLQSSSLRTFGQGTKVEIKR |
| 0.655 | 0.000802 | 1.23e+06 | 14 | H4H2590S (antibody, human IgG4, V domains shown) VH: QVQLVESGGGLVKPGGSLRLSCAASGFTFSDYYMNWIRQAPGKGLEWISYISSGGSTTYYADSVKGRFTISRDNAKNSLYLQMNSLRAEDTAVYYCARDGKYNTSPGDYWGQGTLVTVSS VL: EIVLTQSPDFQSVTPKEKVTITCRASQSIGSSLHWYQQKPDQSPKLLIKYASQSFSGVPSRFSGSGSGTDFTLTINSLEAEDAATYYCLQSSSLRTFGQGTKVDIK |
| 0.65 | 0.0015 | 2.31e+06 | 8 | H4H2597B (antibody, human IgG4, V domains shown) VH: EVQLVESGGGLVQPGGSLRLSCAVSGFTFSNYAMNWVRQAPGKGLEWVSVISDSGRSTYYADSVKGRFTISRDNSKNTLYLQMNSLRAEDTAVYFCAKRYNWNLHYFDYWGQGTTVTVSS VL: EIVLTQSPDFQSVTPKEKVTITCRASQSIGGSLHWYQQKPDQSPKLLIKYASQSFSGVPSRFSGSGSGTDFTLTINSLEAEDAATYYCLQSSSLRTFGQGTKVEIKR |
| 0.641 | 0.000728 | 1.14e+06 | 16 | H4H2592B (antibody, human IgG4, V domains shown) VH: QVQLVESGGGLVKPGGSLRLSCAASGFTFSDYYMNWIRQAPGKGLEWISYISSSGSTTYYADSVKGRFTISRDNAKNSLFLQMNSLRGEDTAVYYCARDGRYNTVAGDYWGQGTTVTVSS VL: EIVMTQSPDFQSVAPKEKVTITCRASQNIGGSLHWYQQKPDQSPKLLIKYASQSFSGVPSRFSGSGSGTDFTLTINSLEAEDAATYYCLQSYTLRTFGQGTKVEIKR |
| 0.307 | 0.00091 | 2.97e+06 | 13 | H4H2607B (antibody, human IgG4, V domains shown) VH: EVQLVESGGGLVKPGGSLRLSCAASGFTFSDYYMNWIRQAPGKGLEWISYLSSSGSATYYADSVKGRFTISRDNAKNSLYLQMNSLRAEDTAVYYCARDGKYNTVAGDYWGQGTTVTVSS VL: DIQLTQSPSSLSASVGDRVTITCRASQGIRNDLGWYQQKPGKAPKRLIYAASSLQSGVPSRFSGSGSGTEFTLTISSLQPEDFATYYCLQHNSYPYTFGQGTKVEIKR |
